Measurements published in patent US20230212549A1 (3B PHARMACEUTICALS, published 2023).
Several values for one entry are separate records, joined by “and”; a condition that tells them apart may be missing. Equal values may be shown once. Numbered stars: 1 amine (or outer) side, 2 acyl side, 3 side chain; on linkers, the order of the positions; unused ones are H or OH. Bridge positions count the residues as written; N and C are the ends. Square brackets hold non-standard residues; d marks the D form. * marks the point of attachment. DOTA = O=C(O)CN1CCN(CC(=O)O)CCN(CC(=O)*)CCN(CC(=O)O)CC1; mXylylene = c1cc(C[*:1])cc(C[*:2])c1; NMeF = CN[C@@H](Cc1ccccc1)C(=O)O; 4Amb = NCc1ccc(C(=O)O)cc1; Nle = CCCC[C@H](N)C(=O)O; Hexanoyl = CCCCCC(=O)*; Phb = not defined here; Aib = CC(C)(N)C(=O)O; βAla = NCCC(=O)O; Mpa = O=C(O)CCS

Assays:
[1] = molecular target: T1, fibroblast activation protein (FAP) on FAP-expressing human WI-38 fibroblasts (human, UniProt Q12884 1-760); experiment: competitive FACS, WI-38 cells, vs Cy5 tracer m3; C = pIC50 6.1-7.0
T1 construct: also called human FAP

[2] = molecular target: Recombinant human FAP (R&D systems, #3715-SE) (human, UniProt Q12884 26-760); experiment: cell-based or functional assay
[3] = molecular target: T1, fibroblast activation protein (FAP) on …; experiment: competitive FACS, WI-38 cells, vs Cy5 tracer m3; B = pIC50 7.1-8.0

Binder | pIC50 Category (FACS) [1] | pIC50 Category (Activity) [2] | pIC50 Category (FACS) [3]
Phb-CPPTQFCD-NH2 (linker 1-7 via mXylylene; reading uncertain; also: printed as Phb-[Cys(3MeBn)-Pro-Pro-Thr-Gln-Phe-Cys]-Asp-NH2, also called 3BP-3418) [Phb-[Cys(3MeBn)-Pro-Pro-Thr-Gln-Phe-Cys]-Asp-NH2] | 6.1 pIC50 and 7 pIC50 | 6.1 pIC50 and 7 pIC50 | 
{DOTA}-[Nle]CPPTEFCDHFRD-NH2 (linker 2-8 via mXylylene; SMILES CCCC[C@H](NC(=O)CN1CCN(CC(=O)O)CCN(CC(=O)O)CCN(CC(=O)O)CC1)C(=O)N[C@H]1CSCc2cccc(c2)CSC[C@@H](C(=O)N[C@@H](CC(=O)O)C(=O)N[C@@H](Cc2c[nH]cn2)C(=O)N[C@@H](Cc2ccccc2)C(=O)N[C@@H](CCCNC(=N)N)C(=O)N[C@@H](CC(=O)O)C(N)=O)NC(=O)[C@H](Cc2ccccc2)NC(=O)[C@H](CCC(=O)O)NC(=O)[C@H]([C@@H](C)O)NC(=O)[C@@H]2CCCN2C(=O)[C@@H]2CCCN2C1=O, also called 3BP-3088) [DOTA-Nle-[Cys(3MeBn)-Pro-Pro-Thr-Glu-Phe-Cys]-Asp-His-Phe-Arg-Asp-NH2] | 6.1 pIC50 and 7 pIC50 | 6.1 pIC50 and 7 pIC50 | 
[Mpa]PPTQFCD-NH2 (linker 1-7 via mXylylene; SMILES C[C@@H](O)[C@@H]1NC(=O)[C@@H]2CCCN2C(=O)[C@@H]2CCCN2C(=O)CCSCc2cccc(c2)CSC[C@@H](C(=O)N[C@@H](CC(=O)O)C(N)=O)NC(=O)[C@H](Cc2ccccc2)NC(=O)[C@H](CCC(N)=O)NC1=O, also called 3BP-3419) [[3MeBn-Spa-Pro-Pro-Thr-Gln-Phe-Cys]-Asp-NH2] | 6.1 pIC50 and 7 pIC50 | 6.1 pIC50 and 7 pIC50 | 
Ac-MC[Aib]PTEFCDHFRD-NH2 (linker 2-8 via mXylylene; SMILES CSCC[C@H](NC(C)=O)C(=O)N[C@H]1CSCc2cccc(c2)CSC[C@@H](C(=O)N[C@@H](CC(=O)O)C(=O)N[C@@H](Cc2c[nH]cn2)C(=O)N[C@@H](Cc2ccccc2)C(=O)N[C@@H](CCCNC(=N)N)C(=O)N[C@@H](CC(=O)O)C(N)=O)NC(=O)[C@H](Cc2ccccc2)NC(=O)[C@H](CCC(=O)O)NC(=O)[C@H]([C@@H](C)O)NC(=O)[C@@H]2CCCN2C(=O)C(C)(C)NC1=O, also called 3BP-3204) [Ac-Met-[Cys(3MeBn)-Aib-Pro-Thr-Glu-Phe-Cys]-Asp-His-Phe-Arg-Asp-NH2] |  | 7.1 pIC50 and 8 pIC50 | 7.1 pIC50 and 8 pIC50
{DOTA}-[βAla]CPPTEFCDH[NMeF]RD-NH2 (linker 2-8 via mXylylene; SMILES C[C@@H](O)[C@@H]1NC(=O)[C@@H]2CCCN2C(=O)[C@@H]2CCCN2C(=O)[C@@H](NC(=O)CCNC(=O)CN2CCN(CC(=O)O)CCN(CC(=O)O)CCN(CC(=O)O)CC2)CSCc2cccc(c2)CSC[C@@H](C(=O)N[C@@H](CC(=O)O)C(=O)N[C@@H](Cc2c[nH]cn2)C(=O)N(C)[C@@H](Cc2ccccc2)C(=O)N[C@@H](CCCNC(=N)N)C(=O)N[C@@H](CC(=O)O)C(N)=O)NC(=O)[C@H](Cc2ccccc2)NC(=O)[C@H](CCC(=O)O)NC1=O, also called 3BP-3264) [DOTA-Bal-[Cys(3MeBn)-Pro-Pro-Thr-Glu-Phe-Cys]-Asp-His-Nmf-Arg-Asp-NH2] |  | 7.1 pIC50 and 8 pIC50 | 7.1 pIC50 and 8 pIC50

Other lines, results leading:

pIC50 Category (FACS) [1] | pIC50 Category (Activity) [2] | pIC50 Category (FACS) [3] | Binder
6.1 pIC50 and 7 pIC50 | 6.1 pIC50 and 7 pIC50 |  | Ac-MC[dA]PTEFCDHFRD-NH2 (linker 2-8 via mXylylene; SMILES CSCC[C@H](NC(C)=O)C(=O)N[C@H]1CSCc2cccc(c2)CSC[C@@H](C(=O)N[C@@H](CC(=O)O)C(=O)N[C@@H](Cc2c[nH]cn2)C(=O)N[C@@H](Cc2ccccc2)C(=O)N[C@@H](CCCNC(=N)N)C(=O)N[C@@H](CC(=O)O)C(N)=O)NC(=O)[C@H](Cc2ccccc2)NC(=O)[C@H](CCC(=O)O)NC(=O)[C@H]([C@@H](C)O)NC(=O)[C@@H]2CCCN2C(=O)[C@@H](C)NC1=O, also called 3BP-3215) [Ac-Met-[Cys(3MeBn)-ala-Pro-Thr-Glu-Phe-Cys]-Asp-His-Phe-Arg-Asp-NH2]
6.1 pIC50 and 7 pIC50 | 6.1 pIC50 and 7 pIC50 |  | {DOTA}-MCPPTEFCDHFRD-NH2 (linker 2-8 via mXylylene; SMILES CSCC[C@H](NC(=O)CN1CCN(CC(=O)O)CCN(CC(=O)O)CCN(CC(=O)O)CC1)C(=O)N[C@H]1CSCc2cccc(c2)CSC[C@@H](C(=O)N[C@@H](CC(=O)O)C(=O)N[C@@H](Cc2c[nH]cn2)C(=O)N[C@@H](Cc2ccccc2)C(=O)N[C@@H](CCCNC(=N)N)C(=O)N[C@@H](CC(=O)O)C(N)=O)NC(=O)[C@H](Cc2ccccc2)NC(=O)[C@H](CCC(=O)O)NC(=O)[C@H]([C@@H](C)O)NC(=O)[C@@H]2CCCN2C(=O)[C@@H]2CCCN2C1=O) [DOTA-Met-[Cys(3MeBn)-Pro-Pro-Thr-Glu-Phe-Cys]-Asp-His-Phe-Arg-Asp-NH2]
6.1 pIC50 and 7 pIC50 | 6.1 pIC50 and 7 pIC50 |  | {DOTA}-CPPTEFCDHFRD-NH2 (linker 1-7 via mXylylene; SMILES C[C@@H](O)[C@@H]1NC(=O)[C@@H]2CCCN2C(=O)[C@@H]2CCCN2C(=O)[C@@H](NC(=O)CN2CCN(CC(=O)O)CCN(CC(=O)O)CCN(CC(=O)O)CC2)CSCc2cccc(c2)CSC[C@@H](C(=O)N[C@@H](CC(=O)O)C(=O)N[C@@H](Cc2c[nH]cn2)C(=O)N[C@@H](Cc2ccccc2)C(=O)N[C@@H](CCCNC(=N)N)C(=O)N[C@@H](CC(=O)O)C(N)=O)NC(=O)[C@H](Cc2ccccc2)NC(=O)[C@H](CCC(=O)O)NC1=O, also called 3BP-3174) [DOTA-[Cys(3MeBn)-Pro-Pro-Thr-Glu-Phe-Cys]-Asp-His-Phe-Arg-Asp-NH2]
 | > 8 pIC50 | 7.1 pIC50 and 8 pIC50 | Hexanoyl-CPPTEFC[4Amb]R-NH2 (linker 1-7 via mXylylene; SMILES CCCCCC(=O)N[C@H]1CSCc2cccc(c2)CSC[C@@H](C(=O)NCc2ccc(C(=O)N[C@@H](CCCNC(=N)N)C(N)=O)cc2)NC(=O)[C@H](Cc2ccccc2)NC(=O)[C@H](CCC(=O)O)NC(=O)[C@H]([C@@H](C)O)NC(=O)[C@@H]2CCCN2C(=O)[C@@H]2CCCN2C1=O, also called 3BP-3303) [Hex-[Cys(3MeBn)-Pro-Pro-Thr-Glu-Phe-Cys]-Pamb-Arg-NH2]
